According to PMC3680705:

Biological target: Drosophila Slit D1-4 (the four leucine-rich repeat domains) (Drosophila)
Experiment: ELISA

Drosophila Slit D1-4 (the four leucine-rich repeat domains) (Drosophila), sequence (P24014 64-922): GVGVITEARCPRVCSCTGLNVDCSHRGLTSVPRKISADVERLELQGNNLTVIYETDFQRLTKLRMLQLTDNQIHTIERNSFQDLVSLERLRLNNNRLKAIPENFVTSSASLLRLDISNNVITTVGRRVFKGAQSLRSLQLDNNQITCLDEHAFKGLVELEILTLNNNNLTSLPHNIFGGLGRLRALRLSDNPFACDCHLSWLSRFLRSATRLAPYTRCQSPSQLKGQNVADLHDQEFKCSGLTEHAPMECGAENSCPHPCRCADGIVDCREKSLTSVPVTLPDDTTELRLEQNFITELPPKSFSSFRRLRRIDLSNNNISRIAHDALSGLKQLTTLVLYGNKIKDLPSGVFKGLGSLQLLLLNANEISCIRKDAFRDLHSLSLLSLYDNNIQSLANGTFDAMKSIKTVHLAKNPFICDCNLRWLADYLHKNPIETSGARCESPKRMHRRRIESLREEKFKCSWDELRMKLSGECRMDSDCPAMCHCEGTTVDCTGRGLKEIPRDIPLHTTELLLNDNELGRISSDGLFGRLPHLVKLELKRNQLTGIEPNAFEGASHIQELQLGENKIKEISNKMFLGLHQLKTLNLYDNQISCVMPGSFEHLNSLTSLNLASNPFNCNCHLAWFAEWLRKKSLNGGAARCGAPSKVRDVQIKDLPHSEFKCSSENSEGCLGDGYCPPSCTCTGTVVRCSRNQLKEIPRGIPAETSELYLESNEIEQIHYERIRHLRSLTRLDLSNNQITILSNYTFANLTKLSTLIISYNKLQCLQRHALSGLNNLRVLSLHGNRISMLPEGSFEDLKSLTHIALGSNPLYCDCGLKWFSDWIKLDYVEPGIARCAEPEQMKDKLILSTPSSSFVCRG

fold increase of the apparent affinity with 10 μg/ml heparin against no heparin: > 10 fold
Substance: Drosophila Robo IG1–5 Fc (Fc fusion)
